Results on two molecules are retold here after US7790384B2, “HIP1 cancer markers” (The Regents of the University of Michigan, priority 2001, dated 2010).

The subject of this experiment is cellular survival. The experiment is described as follows: Effect of expression of HIP1 dominant negative mutant on cellular survival. The class given is cell-based. The following applies: for induction of cell death: expression of construct. From the text:
The effect of expression of a HIP1 dominant negative mutant on cellular survival was next investigated. […] 39% of HIP1/DE-expressing cells and 50% of caspase 9-expressing cells were apoptotic. […] Expression of the endogenous HIP1, wild type HIP1, HIP1/DE and Caspase 9 was documented by Western blot analysis as shown in the bottom of FIG. 6b.

B1: FLHIP1: wild type full length HIP1 expressed in cells (protein)
chain: MDRMASSMKQVPNPLPKVLSRRGVGAGLEAAERESFERTQTVSINKAINTQEVAVKEKHARTCILGTHHEKGAQTFWSVVNRLPLSSNAVLCWKFCHVFHKLLRDGHPNVLKDSLRYRNELSDMSRMWGYLSEGYGQLCSIYLKLLRTKMEYHTKNPRFPGNLQMSDRQLDEAGESDVNNFSQLTVEMFDYLECELNLFQTVFNSLDMSRSVSVTAAGQCRLAPLIQVILDCSHLYDYTVKLLFKLHSCLPADTLQGHRDRFMEQFTKLKDLFYRSSNLQYFKRLIQIPQLPENPPNFLRASALSEHISPVVVIPAEASSPDSEPVLEKDDLMDMDASQQNLFDNKFDDIFGSSFSSDPFNFNSQNGVNKDEKDHLIERLYREISGLKAQLENMKTESQRVVLQLKGHVSELEADLAEQQHLRQQAADDCEFLRAELDELRRQREDTEKAQRSLSEIERKAQANEQRYSKLKEKYSELVQNHADLLRKNAEVTKQVSMARQAQVDLEREKKELEDSLERISDQGQRKTQEQLEVLESLKQELATSQRELQVLQGSLETSAQSEANWAAEFAELEKERDSLVSGAAHREEELSALRKELQDTQLKLASTEESMCQLAKDQRKMLLVGSRKAAEQVIQDALNQLEEPPLISCAGSADHLLSTVTSISSCIEQLEKSWSQYLACPEDISGLLHSITLLAHLTSDAIAHGATTCLRAPPEPADSLTEACKQYGRETLAYLASLEEEGSLENADSTAMRNCLSKIKAIGEELLPRGLDIKQEELGDLVDKEMAATSAAIETATARIEEMLSKSRAGDTGVKLEVNERILGCCTSLMQAIQVLIVASKDLQREIVESGRGTASPKEFYAKNSRWTEGLISASKAVGWGATVMVDAADLVVQGRGKFEELMVCSHEIAASTAQLVAASKVKADKDSPNLAQLQQASRGVNQATAGVVASTISGKSQIEETDNMDFSSMTLTQIKRQEMDSQVRVLELENELQKERQKLGELRKKHYELAGVAEGWEEGTEASPPTLQEVVTEKESQTNTPYVSVNPCYLSRVCYFPSHRPNPWSPRGSHTTAITQCRGHAHFQRLPPRHPFCLDPWISTASYGGWLGFLVLFFFFKFHSHSQLSQRAHPWGVSRAPQLWLQRWCCPGLSVLHLRLHTDQVLAHPVHAPGSGGAAEQLSSKSRRRVSAFPSSIPAESLCPPLQGRRQQKEGQEGSHSPVPVTRLKNLITCLNGAGEINNTTSLPETVREWSLSSGPSPLAQRRSVGVIPNSFLQTSALASSIGRSFHLLRNQTRKIRCNCSHQGRTLYLVCYPYLLLTSLKQQQPTKRCLEQSELQVLQSSSFCPATSAFKNQKKGQGAGLLLTWIPKQGDHLELLGQRKERTEPAAPTPFSHMPQALAALWTGGQRAHEQLARDGQPNSTFPLLDGPQHLSDLLILGKQRLPSLSIATHWWPSSTSEFLQPGRPLEHAXEGP
modifications: X: residue not identified in the source
notes: wild type full length HIP1 expressed in cells
Take B1: the “correction of HIP1 deltaE apoptosis” value (co-expression with HIP1 deltaE, FIG. 12 and 13) is reported as “correction of HIP1 deltaE apoptosis”. For the same molecule, under “FIG. 6b”, the “induction of cell death” value is “did not induce cell death”.

B2: HIP1/deltaE: dominant negative mutant of HIP1 lacking the ENTH domain (SEQ ID NO: 4) (protein, listed as Homo sapiens)
chain: MFDYLECELNLFQTVFNSLDMSRSVSVTAAGQCRLAPLIQVILDCSHLYDYTVKLLFKLHSCLPADTLQGHRDRFMEQFTKLKDLFYRSSNLQYFKRLIQIPQLPENPPNFLRASALSEHISPVVVIPAEASSPDSEPVLEKDDLMDMDASQQNLFDNKFDDIFGSSFSSDPFNFNSQNGVNKDEKDHLIERLYREISGLKAQLENMKTESQRVVLQLKGHVSELEADLAEQQHLRQQAADDCEFLRAELDELRRQREDTEKAQRSLSEIERKAQANEQRYSKLKEKYSELVQNHADLLRKNAEVTKQVSMARQAQVDLEREKKELEDSLERISDQGQRKTQEQLEVLESLKQELATSQRELQVLQGSLETSAQSEANWAAEFAELEKERDSLVSGAAHREEELSALRKELQDTQLKLASTEESMCQLAKDQRKMLLVGSRKAAEQVIQDALNQLEEPPLISCAGSADHLLSTVTSISSCIEQLEKSWSQYLACPEDISGLLHSITLLAHLTSDAIAHGATTCLRAPPEPADSLTEACKQYGRETLAYLASLEEEGSLENADSTAMRNCLSKIKAIGEELLPRGLDIKQEELGDLVDKEMAATSAAIETATARIEEMLSKSRAGDTGVKLEVNERILGCCTSLMQAIQVLIVASKDLQREIVESGRGTASPKEFYAKNSRWTEGLISASKAVGWGATVMVDAADLVVQGRGKFEELMVCSHEIAASTAQLVAASKVKADKDSPNLAQLQQASRGVNQATAGVVASTISGKSQIEETDNMDFSSMTLTQIKRQEMDSQVRVLELENELQKERQKLGELRKKHYELAGVAEGWEEGTEASPPTLQEVVTEKESQTNTPYVSVNPCYLSRVCYFPSHRPNPWSPRGSHTTAITQCRGHAHFQRLPPRHPFCLDPWISTASYGGWLGFLVLFFFFKFHSHSQLSQRAHPWGVSRAPQLWLQRWCCPGLSVLHLRLHTDQVLAHPVHAPGSGGAAEQLSSKSRRRVSAFPSSIPAESLCPPLQGRRQQKEGQEGSHSPVPVTRLKNLITCLNGAGEINNTTSLPETVREWSLSSGPSPLAQRRSVGVIPNSFLQTSALASSIGRSFHLLRNQTRKIRCNCSHQGRTLYLVCYPYLLLTSLKQQQPTKRCLEQSELQVLQSSSFCPATSAFKNQKKGQGAGLLLTWIPKQGDHLELLGQRKERTEPAAPTPFSHMPQALAALWTGGQRAHEQLARDGQPNSTFPLLDGPQHLSDLLILGKQRLPSLSIATHWWPSSTSEFLQPGRPLEH
Molecule B2 displayed an apoptotic cells (cells expressing the construct, FIG. 6b) of 39%. Further, under “FIG. 6b”, the “induction of cell death” value is reported as “promoted cell death”.
